Reference: publication PMC8216282, “Structural basis for the dynamics of human methionyl-tRNA synthetase in multi-tRNA synthetase complexes” (Nucleic Acids Research, 2021)

T1: extended GST domain of human MRS (MRS 1-224) (human, UniProt P56192 1-224)
T1 construct: methionyl-tRNA synthetase, cytosolic, human, residues 1-224 (GST domain and first part of the linker); also called MRSGST; source: recombinant, obtained as MRS_(1-224)-AIMP3 complex by co-purification
T1 sequence (looked up): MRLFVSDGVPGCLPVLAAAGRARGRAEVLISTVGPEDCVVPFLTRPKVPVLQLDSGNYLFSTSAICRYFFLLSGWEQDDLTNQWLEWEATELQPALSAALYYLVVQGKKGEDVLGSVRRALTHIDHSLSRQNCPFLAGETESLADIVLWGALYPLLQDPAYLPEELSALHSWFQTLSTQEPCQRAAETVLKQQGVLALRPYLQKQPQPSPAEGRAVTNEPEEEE

T2: human MRS without the C-terminal WHEP domain (MRS 1-834) (human, UniProt P56192 1-834)
T2 construct: methionyl-tRNA synthetase, cytosolic, human, residues 1-834; source: E. coli BL21 (DE3), purified (Ni-NTA, size-exclusion chromatography); as complex with AIMP3
T2 sequence (looked up): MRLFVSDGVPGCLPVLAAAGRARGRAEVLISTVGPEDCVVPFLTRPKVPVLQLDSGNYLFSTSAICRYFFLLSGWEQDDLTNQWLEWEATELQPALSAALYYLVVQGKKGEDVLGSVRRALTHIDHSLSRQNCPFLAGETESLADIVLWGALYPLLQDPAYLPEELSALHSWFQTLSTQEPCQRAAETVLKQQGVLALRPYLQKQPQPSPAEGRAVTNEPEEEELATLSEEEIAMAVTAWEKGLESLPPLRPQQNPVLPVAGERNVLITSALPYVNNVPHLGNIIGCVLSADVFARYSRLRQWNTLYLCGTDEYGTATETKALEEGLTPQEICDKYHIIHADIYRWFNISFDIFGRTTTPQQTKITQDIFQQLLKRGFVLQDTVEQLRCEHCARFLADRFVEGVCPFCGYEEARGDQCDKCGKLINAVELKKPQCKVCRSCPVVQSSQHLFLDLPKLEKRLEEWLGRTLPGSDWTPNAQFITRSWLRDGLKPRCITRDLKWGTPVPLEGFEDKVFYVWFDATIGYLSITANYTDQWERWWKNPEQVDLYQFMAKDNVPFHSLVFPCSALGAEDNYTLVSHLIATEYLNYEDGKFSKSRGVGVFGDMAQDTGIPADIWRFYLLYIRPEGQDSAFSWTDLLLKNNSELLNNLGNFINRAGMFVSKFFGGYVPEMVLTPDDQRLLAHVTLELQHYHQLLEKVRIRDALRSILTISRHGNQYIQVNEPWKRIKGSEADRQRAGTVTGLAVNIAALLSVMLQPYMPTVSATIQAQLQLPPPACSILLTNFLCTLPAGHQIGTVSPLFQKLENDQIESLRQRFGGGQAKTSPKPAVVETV

T3: human cytosolic methionyl-tRNA synthetase, full length (MRS 1-900) (human, UniProt P56192 1-900)
T3 construct: methionyl-tRNA synthetase, cytosolic, human, residues 1-900 (900-residue protein); source: recombinant from pET30a or pQE80L plasmids, obtained as MRS-AIMP3 complex by co-purification
T3 sequence (looked up): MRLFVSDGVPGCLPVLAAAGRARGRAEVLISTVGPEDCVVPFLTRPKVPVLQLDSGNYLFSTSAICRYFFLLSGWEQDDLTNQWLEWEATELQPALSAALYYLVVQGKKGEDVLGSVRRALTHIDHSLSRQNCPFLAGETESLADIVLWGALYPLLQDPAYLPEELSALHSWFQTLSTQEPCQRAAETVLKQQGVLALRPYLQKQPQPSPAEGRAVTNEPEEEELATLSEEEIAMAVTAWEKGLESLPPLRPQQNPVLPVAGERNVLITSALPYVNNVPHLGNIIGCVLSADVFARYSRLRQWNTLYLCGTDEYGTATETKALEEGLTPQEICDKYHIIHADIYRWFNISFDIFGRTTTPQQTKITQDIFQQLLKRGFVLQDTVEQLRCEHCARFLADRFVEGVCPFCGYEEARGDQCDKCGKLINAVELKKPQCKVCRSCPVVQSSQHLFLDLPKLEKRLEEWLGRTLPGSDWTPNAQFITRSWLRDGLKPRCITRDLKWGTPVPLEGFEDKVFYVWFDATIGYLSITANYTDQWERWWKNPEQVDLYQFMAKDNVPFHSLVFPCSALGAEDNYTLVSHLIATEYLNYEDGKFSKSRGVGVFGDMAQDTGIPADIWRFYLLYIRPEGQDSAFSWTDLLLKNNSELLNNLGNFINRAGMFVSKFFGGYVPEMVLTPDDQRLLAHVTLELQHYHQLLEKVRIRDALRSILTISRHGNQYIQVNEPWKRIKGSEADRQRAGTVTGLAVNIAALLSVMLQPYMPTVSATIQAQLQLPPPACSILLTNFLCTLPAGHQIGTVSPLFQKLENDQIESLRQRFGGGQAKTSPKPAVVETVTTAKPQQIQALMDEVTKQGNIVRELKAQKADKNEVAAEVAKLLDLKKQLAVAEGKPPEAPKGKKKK

T4: AIMP3 with the nanoluciferase large subunit at its N-terminus (LgBit-AIMP3) (human, UniProt O43324 1-174)
T4 construct: AIMP3, human; source: CHO-K1 cells, transfected, in live cells; not shown: LgBit (NanoLuc large subunit), N-terminal, kept
T4 sequence (looked up): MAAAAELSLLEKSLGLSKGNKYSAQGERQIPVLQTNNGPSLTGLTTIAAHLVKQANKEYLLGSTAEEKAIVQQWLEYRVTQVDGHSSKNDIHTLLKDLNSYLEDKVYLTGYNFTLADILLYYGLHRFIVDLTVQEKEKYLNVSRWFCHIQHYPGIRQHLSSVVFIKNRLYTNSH

B1: AIMP3 (AARS-interacting multifunctional protein 3) (natural protein, human)
chain: MAAAAELSLLEKSLGLSKGNKYSAQGERQIPVLQTNNGPSLTGLTTIAAHLVKQANKEYLLGSTAEEKAIVQQWLEYRVTQVDGHSSKNDIHTLLKDLNSYLEDKVYLTGYNFTLADILLYYGLHRFIVDLTVQEKEKYLNVSRWFCHIQHYPGIRQHLSSVVFIKNRLYTNSH
notes: AIMP3, human; 'Genes for full-length human MRS (residues 1-900) and AIMP3' were cloned; the earlier structure (PDB 4bvx) used AIMP3 1-169; source: recombinant from pET30a or pQE80L plasmids, co-purified with MRS or MRS_(1-224)
B2: MRS with the nanoluciferase small subunit at its N-terminus (SmBit-MRS) (enzyme, human, UniProt P56192 1-900, looked up)
chain: MRLFVSDGVPGCLPVLAAAGRARGRAEVLISTVGPEDCVVPFLTRPKVPVLQLDSGNYLFSTSAICRYFFLLSGWEQDDLTNQWLEWEATELQPALSAALYYLVVQGKKGEDVLGSVRRALTHIDHSLSRQNCPFLAGETESLADIVLWGALYPLLQDPAYLPEELSALHSWFQTLSTQEPCQRAAETVLKQQGVLALRPYLQKQPQPSPAEGRAVTNEPEEEELATLSEEEIAMAVTAWEKGLESLPPLRPQQNPVLPVAGERNVLITSALPYVNNVPHLGNIIGCVLSADVFARYSRLRQWNTLYLCGTDEYGTATETKALEEGLTPQEICDKYHIIHADIYRWFNISFDIFGRTTTPQQTKITQDIFQQLLKRGFVLQDTVEQLRCEHCARFLADRFVEGVCPFCGYEEARGDQCDKCGKLINAVELKKPQCKVCRSCPVVQSSQHLFLDLPKLEKRLEEWLGRTLPGSDWTPNAQFITRSWLRDGLKPRCITRDLKWGTPVPLEGFEDKVFYVWFDATIGYLSITANYTDQWERWWKNPEQVDLYQFMAKDNVPFHSLVFPCSALGAEDNYTLVSHLIATEYLNYEDGKFSKSRGVGVFGDMAQDTGIPADIWRFYLLYIRPEGQDSAFSWTDLLLKNNSELLNNLGNFINRAGMFVSKFFGGYVPEMVLTPDDQRLLAHVTLELQHYHQLLEKVRIRDALRSILTISRHGNQYIQVNEPWKRIKGSEADRQRAGTVTGLAVNIAALLSVMLQPYMPTVSATIQAQLQLPPPACSILLTNFLCTLPAGHQIGTVSPLFQKLENDQIESLRQRFGGGQAKTSPKPAVVETVTTAKPQQIQALMDEVTKQGNIVRELKAQKADKNEVAAEVAKLLDLKKQLAVAEGKPPEAPKGKKKK
notes: methionyl-tRNA synthetase, cytosolic, human; source: CHO-K1 cells, transfected, in live cells; not shown: SmBit (NanoLuc small subunit), N-terminal, kept

Key:
[1] = target: T1, extended GST domain of human MRS (MRS …); test: crystal structure; MRS_(1-224)-AIMP3 complex crystallised in 20% PEG 8000, 0.1 M HEPES pH 7.5; molecular replacement; 2.0 A; conditions: both partners purified
[2] = target: T2, human MRS without the C-terminal WHEP …; test: SEC; Superdex 200 10/300 column, Tris-HCl pH 7.5, 150 mM NaCl; molecular weights from a calibration curve of standards; conditions: both partners purified
[3] = target: T3, human cytosolic methionyl-tRNA …; test: as above; conditions: both partners purified
[4] = target: T4, AIMP3 with the nanoluciferase large …; test: split reporter (BiFC, NanoBiT); NanoBiT; LgBit on the N- or C-terminus of AIMP3, SmBit on the N- or C-terminus of MRS or on AIMP3; co-expressed in CHO-K1 cells; luminescence measured with cell-permeable substrate; conditions: partners not purified

Row | Binder | binding result [1] | binding result [2] | binding result [3] | fold increase of luciferase activity over background [4]
1 | B1 | binds | binds | binds | 
2 | B2 |  |  |  | > 120 fold
